Results as given in US20140220033A1, “Administration of an Anti-Activin-A Compound to a Subject” (Santa Maria Biotherapeutics, Inc., priority 2013, published 2014).

Legend:
[1] = test system: ovarian tumors in inh-KO mice; test: Ovarian tumor mass in inh-KO mice (necropsy); format: in vivo, mouse; details: 12-week-old female inh-KO mice; single dose 30 mg/kg SC; necropsy 14 days after injection; FIG. 3A, 3B
Procedure: (§1) 12-week-old female and 8-week-old male inh-KO mice with fully established ovarian or testicular tumors received a single injection of PBS or sActRIIB (30 mg/kg, SC). As a control, age-matched wild-type littermates received a single injection of PBS. Ovarian and testicular organ weights were determined by necropsy 14 days after the injection.

[2] = test system: testicular tumors in inh-KO mice; test: Light microscopy (H&E) of testes of inh-KO mice; format: in vivo, mouse; details: male inh-KO mice; FIG. 7B
Procedure: as §1
Testes and ovaries from inh-KO mice were fixed with Zinc-formalin. Tissue sections were subjected to H&E staining and then examined with a Nikon Eclipse 90i microscope.

[3] = test system: VEGF; test: VEGF immunostaining in gonadal tumor sections of inh-KO mice; format: in vivo, mouse; details: ovarian and testicular tumors of inh-KO mice; FIG. 8B
Procedure: as §1
(§2) Zinc-formalin fixed paraffin tumor tissue sections of 4 μm in thickness were prepared. The sections were subjected to antigen retrieval by microwave 3 min in Unmask solution (Vector H-3300) followed by incubation in 10 μg/ml Proteinase-K for 20 min and in 1% H2O2 in dH2O for 10 min at room temperature. The sections were further incubated in 0.1% Tween-20 in PBS for 3 min to permeabilize the cell membrane and in goat serum for 30 min to block non-specific binding. The sections were then incubated at room temperature with specific primary antibody for 3 hours followed by incubation in biotinylated or fluorescently labeled secondary antibody. Substrate developed in Vector SG kit (SK-4700) or DAB and nuclear-counterstained in Vector Fast Red (H-3403) or in hematoxylin. The immunostained tissue sections were analyzed and photographed using a Nikon Eclipse 90i microscope equipped with DS-Ril camera. […]

[4] = test system: Ang-1; test: Ang-1 immunostaining in gonadal tumor sections of inh-KO mice; format: in vivo, mouse; details: ovarian and testicular tumors of inh-KO mice; FIG. 8B
Procedure: as §1, §2

[5] = test system: Ang-2 mRNA; test: Northern blot of Ang-2 mRNA in gonadal tumors of inh-KO mice; format: in vivo, mouse; details: ovarian and testicular tumors of inh-KO mice; FIG. 8C
Procedure: as §1
Total RNA was isolated from individual tissue samples after homogenization in Trizol (Invitrogen). A pool of 10 μg RNA for each group containing equal amounts of total RNA isolated from individual animals was subjected to Northern blot analysis. The northern probes used for βA and Ang-2 were generated by using RT-PCR (Phusion, Biolabs). βA primer set: 5′-CCCTTGCTTTGGCTGAGAGGA-3′ and 5′-TC ACA GGT CGT CGT AGG TCG-3′; Ang-2 primer set: 5′-TGT GCC GGG GAG AAG AG and 5′-TACAGTAGTGGGTTGAGGTTC-3′. To normalize the expression, northern blot membranes were re-probed with β-actin.

[6] = test system: TOV-21G ovarian cancer xenografts; test: TOV-21G ovarian cancer xenograft growth in nude mice; format: in vivo, mouse
Procedure: 5×10^6 TOV-21G ovarian cancer cells were implanted subcutaneously into individual female athymic nu/nu mice (Harlan). Treatment was initiated at day 12 after tumor implantation, when the average tumor volume reached approximately 150 mm^3. The mice received PBS, sActRIIB (30 mg/kg, SC, 1×/week) or activin-A antibody (30 mg/kg, SC, 2×/week). In a separate chemotherapy combination experiment, the mice were treated with PBS, sActRIIB (10 mg/kg, SC, 1×/week), 5-FU (50 mg/kg, IP, 3 cycles, 4 daily injections per cycle) or sActRIIB and 5-FU combination at the same doses above.
For all xenograft experiments, the tumor sizes were measured longitudinally by using an electronic caliper Immediately prior to the 1st dose, the tumor-bearing mice were randomized to ensure even distribution in tumor sizes across different groups. Tumor volumes (mm^3) were calculated as tumor length (mm)×tumor width (mm)×tumor height (mm) Tumor weights were determined by necropsy.
(§3) In another experiment, athymic nude mice received TOV-21G xenografts in the abdominal flank. After 14 days, subcutaneous hu-sActRIIB-Fc was administered weekly alone or in combination with 5-FU.

[7] = Body weight of TOV-21G xenograft-bearing mice; format: in vivo, mouse; details: TOV-21G xenograft-bearing athymic nude mice; during the course of the experiment; vehicle controls lost 10%
Procedure: as §3

[8] = test system: TOV-21G cells; test: In vitro proliferation assay of TOV-21G cells (IncuCyte); format: cell-based, human; details: increasing concentrations; FIG. 14
Procedure: In vitro growth rates of TOV-21G cancer cells were analyzed by using a real-time live cell imaging system (IncuCyte) following the manufacturer's recommended protocol.

[9] = test system: VEGF transcripts; test: VEGF mRNA in cell cultures (real-time RT-PCR); format: cell-based, human, bovine; details: TOV-21G, BAEC, MRC-5, CCD-Lu, U937 cultures treated with recombinant activin-A, without or with sActRIIB; FIG. 16A
[10] = test system: Ang-1 mRNA; test: Ang-1 mRNA in cell cultures (real-time RT-PCR); format: cell-based, human, bovine; details: BAEC, MRC-5 and CCD-Lu cultures treated with recombinant activin-A, without or with sActRIIB; FIG. 16B
[11] = test system: Ang-1; test: Ang-1 release into culture medium (ELISA); format: cell-based, human; details: MRC-5 and CCD-Lu cells treated with activin-A, without or with sActRIIB; FIG. 17B
Procedure: The serum VEGF levels in inh-KO mice were measured by using immunoassay kit (R&D Systems), and the levels of human VEGF and Ang-1 in cell line culture medium were quantified using ELISA kits purchased from Invitrogen (VEGF) and R&D Systems (Ang-1), by following the manufacturers' recommended protocols.

B1: sActRIIB: extracellular domain of human activin type-2B receptor fused to IgG2 Fc, expressed in CHO cells; sequence in the 26th table (protein)
chain: ETRWCIYYNANWELERTNQGLERCEGEQDKRLHCYASWRNSSGTIELVKKGCWLDDFNCYDRQECVATEENPQVYFCCCEGNFCNERFTHLPEAGGPEVTYEPPPTAPTGGGGSVECPPCPAPPVAGPSVFLFPPKPKDTLMISRTPEVTCVVVDVSHEDPEVQFNWYVDGVEVHNAKTKPREEQFNSTFRVVSVLTVVHQDWLNGKEYKCKVSNKGLPAPIEKTISKTKGQPREPQVYTLPPSREEMTKNQVSLTCLVKGFYPSDIAVEWESNGQPENNYKTTPPMLDSDGSFFLYSKLTVDKSRWQQGNVFSCSVMHEALHNHYTQKSLSLSPGK
modifications: left off: a dimerising Fc or GST
ovarian tumor mass [1]: regressed rapidly to the sizes seen in the WT control mice | testicular morphology (light microscopy) [2]: the testes were normal in size and filled with seminiferous tubules | VEGF immunoreactivity in tumor sections [3]: completely abolished the VEGF and Ang-1 inductions | Ang-1 immunoreactivity in tumor sections [4]: completely abolished the VEGF and Ang-1 inductions | Ang-2 mRNA expression (Northern blot) [5]: inhibited its overexpression | tumor growth reduction ([6]; 52 days after tumor cell injection, versus vehicle-treated tumor-bearing group, p<0.0001, weekly SC hu-sActRIIB-Fc from day 14, alone or with 5-FU): 43% | rate of tumor growth of TOV-21G xenografts ([6]; chemotherapy combination experiment, sActRIIB 10 mg/kg SC 1x/week, 5-FU 50 mg/kg IP 3 cycles, alone or together, FIG. 13): decreased the rate of tumor growth significantly | growth of TOV-21G ovarian cancer xenografts ([6]; nude mice, sActRIIB 30 mg/kg SC 1x/week or activin-A antibody 30 mg/kg SC 2x/week from day 12, FIG. 10B): significantly inhibited the growth | body weight increase [7]: 26% | TOV-21G cell proliferation in vitro [8]: no direct effect | levels of VEGF transcripts [9]: prevented this induction | levels of Ang-1 mRNA [10]: prevented this induction | release of Ang-1 into the culture medium [11]: blocked completely
